2 molecules from patent US8158376B2, “Bisubstrate fluorescent probe binding to protein kinases” (University of Tartu, priority 2006, dated 2012) can be followed below.

Usually Ki stands for a measure of affinity in units of concentration, obtained from inhibition or displacement. Low readings indicate a stronger hold on the target, high ones a looser hold on the target. The term residual activity denotes the share of the control activity or signal that is left under treatment. Read a high residual activity as a small loss of activity.

Like-named read-outs stand apart in the source and are kept apart here. Where only a bound is given, the exact number is not on record here.

One data set deals with T1, MST2 (Homo sapiens, UniProt Q13188).
T1 sequence (Q13188 1-491): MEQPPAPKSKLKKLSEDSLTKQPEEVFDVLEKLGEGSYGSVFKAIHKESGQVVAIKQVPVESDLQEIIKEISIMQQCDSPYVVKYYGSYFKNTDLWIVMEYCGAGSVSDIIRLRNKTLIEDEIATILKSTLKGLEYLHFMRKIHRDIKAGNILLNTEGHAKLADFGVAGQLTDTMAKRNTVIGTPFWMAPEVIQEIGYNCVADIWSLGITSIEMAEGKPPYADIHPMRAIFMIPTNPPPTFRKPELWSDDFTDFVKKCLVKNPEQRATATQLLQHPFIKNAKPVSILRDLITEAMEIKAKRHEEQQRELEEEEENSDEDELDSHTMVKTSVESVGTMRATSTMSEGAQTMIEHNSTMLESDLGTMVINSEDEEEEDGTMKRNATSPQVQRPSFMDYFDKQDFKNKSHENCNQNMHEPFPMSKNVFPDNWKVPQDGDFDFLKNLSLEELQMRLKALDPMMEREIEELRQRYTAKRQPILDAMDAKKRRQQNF
The experiment in a line: Kinase selectivity panel. The format is biochemical. Particulars: read-out: residual activity (%) MST2. The gist of the method:
(§1)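 Each kinase was tested as one member of a 52-kinase selectivity panel. Kinase reactions were run at 30° C.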

A further data set has as its target MNK1 (Homo sapiens, UniProt Q9BUB5). The experiment in a line: Kinase selectivity panel. Particulars: read-out: residual activity (%) MNK1. The format is biochemical. The gist of the method:
as §1

Another data set concerns the target SRPK1 (Homo sapiens, UniProt Q96SB4). Kind of data set: Kinase selectivity panel. It counts as biochemical. Particulars: read-out: residual activity (%) SRPK1. Summed up:
as §1

Another data set concerns the target MNK2 (Homo sapiens, UniProt Q9HBH9). Kind of data set: Kinase selectivity panel. The format is biochemical. Particulars: read-out: residual activity (%) MNK2. Summed up: as §1
A further data set deals with MAPK2/ERK2 (Homo sapiens, UniProt P28482). The experiment in a line: Kinase selectivity panel. It counts as biochemical. Particulars: inhibitor 1 μM; ATP 50 μM; read-out: residual activity (%) MAPK2/ERK2. As for the experimental part:
(§2) The panel of kinases included all 52 kinases available for testing. To the best of our knowledge, the selectivity profiling has not been carried out with a wide panel of PK before for bisubstrate-type inhibitors.
(§3) The assay of protein kinases was performed at 30° C. as described previously [Davies et al., Biochem. J. 351 (2000) 95; Murray et al., Biochem. J. 384 (2004) 477]. The results of the testing are expressed as the % of residual activity of the kinase in the presence of the inhibitor at 1 micromolar concentration.

In a further data set the target is SAPK2a/p38 (Homo sapiens, UniProt Q16539). Kind of data set: Kinase selectivity panel. It counts as biochemical. The conditions noted are these: inhibitor 1 μM; ATP 50 μM; read-out: residual activity (%) SAPK2a/p38. As for the experimental part: as §2, §3
SAPK2a/p38, sequence (Q16539 whole entry): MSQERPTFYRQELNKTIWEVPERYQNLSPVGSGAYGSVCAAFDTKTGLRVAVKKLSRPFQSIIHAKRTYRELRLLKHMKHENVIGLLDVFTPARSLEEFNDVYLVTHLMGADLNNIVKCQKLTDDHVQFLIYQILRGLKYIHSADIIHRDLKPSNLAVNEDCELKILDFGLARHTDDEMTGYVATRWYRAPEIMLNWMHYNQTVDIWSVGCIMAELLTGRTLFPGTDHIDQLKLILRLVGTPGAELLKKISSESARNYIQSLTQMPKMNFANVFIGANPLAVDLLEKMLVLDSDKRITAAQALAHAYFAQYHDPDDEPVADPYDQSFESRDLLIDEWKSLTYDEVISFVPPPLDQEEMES
A further data set has as its target T2, SAPK3/p38g (Homo sapiens, UniProt P53778).
T2 sequence (P53778 1-367): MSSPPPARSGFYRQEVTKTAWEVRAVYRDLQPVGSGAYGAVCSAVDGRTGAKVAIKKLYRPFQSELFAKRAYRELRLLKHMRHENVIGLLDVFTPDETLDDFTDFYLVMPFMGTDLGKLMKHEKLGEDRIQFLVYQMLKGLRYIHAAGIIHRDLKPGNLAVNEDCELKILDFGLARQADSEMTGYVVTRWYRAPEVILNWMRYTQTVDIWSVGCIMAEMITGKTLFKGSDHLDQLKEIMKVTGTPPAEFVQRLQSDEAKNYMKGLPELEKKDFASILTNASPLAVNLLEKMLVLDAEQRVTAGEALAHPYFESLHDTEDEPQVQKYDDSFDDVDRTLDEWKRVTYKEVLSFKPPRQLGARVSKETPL
Kind of data set: Kinase selectivity panel. The format is biochemical. Particulars: inhibitor 1 μM; ATP 5 μM; read-out: residual activity (%) SAPK3/p38g. As for the experimental part: as §2, §3

A further data set has as its target SAPK2b/p38β2 (Homo sapiens, UniProt Q15759). The experiment in a line: Kinase selectivity panel. It counts as biochemical. Particulars: inhibitor 1 μM; ATP 20 μM; read-out: residual activity (%) SAPK2b/p38β2. Here is the method:
as §2, §3

The target of the next data set is T3, SAPK4/p38d (Homo sapiens, UniProt O15264).
T3 sequence (O15264 1-365): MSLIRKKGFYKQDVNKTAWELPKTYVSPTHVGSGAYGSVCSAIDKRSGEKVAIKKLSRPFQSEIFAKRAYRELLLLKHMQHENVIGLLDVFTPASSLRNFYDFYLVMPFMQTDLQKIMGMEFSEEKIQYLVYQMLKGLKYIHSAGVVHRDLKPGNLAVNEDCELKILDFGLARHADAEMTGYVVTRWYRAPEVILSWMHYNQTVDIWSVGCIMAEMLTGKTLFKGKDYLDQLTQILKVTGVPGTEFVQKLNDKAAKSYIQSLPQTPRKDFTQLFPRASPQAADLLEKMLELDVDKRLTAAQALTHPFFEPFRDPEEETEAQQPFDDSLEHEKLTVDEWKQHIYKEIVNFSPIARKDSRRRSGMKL
Kind of data set: Kinase selectivity panel. It counts as biochemical. Particulars: inhibitor 1 μM; ATP 5 μM; read-out: residual activity (%) SAPK4/p38d. Here is the method:
as §2, §3

Another data set concerns the target JNK/SAPK1c (Homo sapiens, UniProt P45983). The experiment in a line: Kinase selectivity panel. It counts as biochemical. Particulars: inhibitor 1 μM; ATP 20 μM; read-out: residual activity (%) JNK/SAPK1c. Here is the method:
as §2, §3

A further data set addresses CDK2/cyclin A (Homo sapiens, UniProt P24941). Kind of data set: Kinase selectivity panel. It counts as biochemical. The conditions noted are these: inhibitor 1 μM; ATP 20 μM; read-out: residual activity (%) CDK2/cyclin A. As for the experimental part: as §2, §3
The target in the next data set is cAPK Cα (Homo sapiens, UniProt P17612). The experiment in a line: High-throughput displacement of ARC-TAMRA from cAPK Cα, PHERAstar.
A further data set addresses PKBΔph (Homo sapiens, UniProt P31749). The experiment in a line: Kinase selectivity panel, residual activity. It counts as biochemical. The conditions noted are these: 1 μM compound, 5 μM ATP, 30° C. As for the experimental part: as §3
The target in a further data set is PKBb (Homo sapiens, UniProt P31751). Kind of data set: Kinase selectivity panel, residual activity. It counts as biochemical. The conditions noted are these: 1 μM compound, 50 μM ATP, 30° C. Here is the method: as §3
PKBb, sequence (P31751 whole entry): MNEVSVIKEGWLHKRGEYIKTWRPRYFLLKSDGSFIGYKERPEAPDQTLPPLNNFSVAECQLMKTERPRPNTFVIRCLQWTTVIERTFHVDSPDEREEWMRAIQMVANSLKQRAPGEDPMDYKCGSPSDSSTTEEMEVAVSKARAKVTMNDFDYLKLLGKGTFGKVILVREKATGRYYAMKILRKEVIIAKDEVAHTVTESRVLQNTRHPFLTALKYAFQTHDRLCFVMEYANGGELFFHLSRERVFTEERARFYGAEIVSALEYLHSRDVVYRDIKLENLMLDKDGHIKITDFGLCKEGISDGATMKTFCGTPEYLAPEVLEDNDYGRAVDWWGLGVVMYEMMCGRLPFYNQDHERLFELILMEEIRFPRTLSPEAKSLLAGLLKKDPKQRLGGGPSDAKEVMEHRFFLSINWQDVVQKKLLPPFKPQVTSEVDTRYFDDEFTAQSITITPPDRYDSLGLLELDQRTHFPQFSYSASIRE
For a further data set, the target named is PRK2 (Homo sapiens, UniProt Q16513). Kind of data set: Kinase selectivity panel, residual activity. It counts as biochemical. Here is the method:
as §3

JNK/SAPK1c, sequence (P45983 whole entry): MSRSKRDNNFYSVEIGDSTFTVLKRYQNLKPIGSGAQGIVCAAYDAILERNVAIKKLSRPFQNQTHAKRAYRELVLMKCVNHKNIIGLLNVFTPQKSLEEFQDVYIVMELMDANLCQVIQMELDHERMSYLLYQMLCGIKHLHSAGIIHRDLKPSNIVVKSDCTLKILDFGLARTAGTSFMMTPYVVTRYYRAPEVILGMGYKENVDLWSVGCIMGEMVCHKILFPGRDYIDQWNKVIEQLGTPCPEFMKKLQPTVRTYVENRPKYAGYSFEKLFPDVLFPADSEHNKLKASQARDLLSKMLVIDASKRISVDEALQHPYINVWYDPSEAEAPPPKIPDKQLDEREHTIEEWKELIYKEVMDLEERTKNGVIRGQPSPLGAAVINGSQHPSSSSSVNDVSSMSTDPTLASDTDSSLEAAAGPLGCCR
MNK1, sequence (Q9BUB5 whole entry, species assumed): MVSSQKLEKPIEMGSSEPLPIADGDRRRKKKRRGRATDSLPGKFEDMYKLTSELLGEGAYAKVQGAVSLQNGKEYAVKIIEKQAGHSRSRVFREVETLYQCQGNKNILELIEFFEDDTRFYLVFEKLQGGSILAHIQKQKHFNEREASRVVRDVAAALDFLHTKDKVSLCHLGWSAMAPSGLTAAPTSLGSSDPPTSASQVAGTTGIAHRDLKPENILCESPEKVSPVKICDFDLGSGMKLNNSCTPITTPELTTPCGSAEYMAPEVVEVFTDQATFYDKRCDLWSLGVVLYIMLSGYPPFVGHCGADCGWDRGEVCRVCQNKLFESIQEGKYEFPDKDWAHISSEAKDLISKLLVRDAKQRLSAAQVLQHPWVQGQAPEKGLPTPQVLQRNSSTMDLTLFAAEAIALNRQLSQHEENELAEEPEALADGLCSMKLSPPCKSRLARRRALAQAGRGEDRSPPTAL
MAPK2/ERK2, sequence (P28482 whole entry): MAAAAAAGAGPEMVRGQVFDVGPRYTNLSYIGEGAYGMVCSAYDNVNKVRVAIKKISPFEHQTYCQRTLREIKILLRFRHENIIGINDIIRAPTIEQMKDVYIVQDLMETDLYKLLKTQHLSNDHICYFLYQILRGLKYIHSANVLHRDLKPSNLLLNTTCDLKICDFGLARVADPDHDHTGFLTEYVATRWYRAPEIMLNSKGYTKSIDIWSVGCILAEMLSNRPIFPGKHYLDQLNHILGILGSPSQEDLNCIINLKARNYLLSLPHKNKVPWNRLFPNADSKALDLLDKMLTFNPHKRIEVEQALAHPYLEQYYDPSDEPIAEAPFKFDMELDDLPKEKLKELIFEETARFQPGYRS
SRPK1, sequence (Q96SB4 whole entry, species assumed): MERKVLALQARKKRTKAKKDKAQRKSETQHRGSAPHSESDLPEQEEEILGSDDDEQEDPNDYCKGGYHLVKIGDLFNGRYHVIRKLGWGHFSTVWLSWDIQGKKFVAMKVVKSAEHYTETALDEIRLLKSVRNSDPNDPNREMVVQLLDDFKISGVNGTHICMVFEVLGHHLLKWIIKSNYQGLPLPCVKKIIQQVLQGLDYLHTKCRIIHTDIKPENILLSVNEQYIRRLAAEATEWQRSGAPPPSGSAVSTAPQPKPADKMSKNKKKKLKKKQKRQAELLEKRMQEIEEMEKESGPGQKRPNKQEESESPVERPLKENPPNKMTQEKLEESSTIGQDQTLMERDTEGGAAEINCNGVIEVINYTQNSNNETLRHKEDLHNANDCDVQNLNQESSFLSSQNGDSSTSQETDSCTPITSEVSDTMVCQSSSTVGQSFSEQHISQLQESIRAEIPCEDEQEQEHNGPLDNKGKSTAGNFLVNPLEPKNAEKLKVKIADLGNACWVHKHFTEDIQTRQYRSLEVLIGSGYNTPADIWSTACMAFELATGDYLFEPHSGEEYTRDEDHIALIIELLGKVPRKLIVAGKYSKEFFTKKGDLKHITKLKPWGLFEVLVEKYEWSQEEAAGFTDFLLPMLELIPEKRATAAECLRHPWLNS
MNK2, sequence (Q9HBH9 whole entry, species assumed): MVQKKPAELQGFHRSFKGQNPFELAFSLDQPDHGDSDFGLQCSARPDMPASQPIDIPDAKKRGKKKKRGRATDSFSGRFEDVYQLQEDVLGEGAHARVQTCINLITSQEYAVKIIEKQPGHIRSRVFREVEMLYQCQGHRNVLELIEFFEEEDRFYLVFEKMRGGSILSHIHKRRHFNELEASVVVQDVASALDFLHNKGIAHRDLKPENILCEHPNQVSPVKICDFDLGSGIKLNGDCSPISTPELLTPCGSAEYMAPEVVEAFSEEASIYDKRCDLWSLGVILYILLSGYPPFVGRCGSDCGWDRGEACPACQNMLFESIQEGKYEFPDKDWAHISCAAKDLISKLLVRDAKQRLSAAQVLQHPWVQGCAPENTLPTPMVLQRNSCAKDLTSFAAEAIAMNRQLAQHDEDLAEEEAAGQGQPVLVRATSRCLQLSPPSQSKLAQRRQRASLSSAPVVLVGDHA
SAPK2b/p38β2, sequence (Q15759 whole entry): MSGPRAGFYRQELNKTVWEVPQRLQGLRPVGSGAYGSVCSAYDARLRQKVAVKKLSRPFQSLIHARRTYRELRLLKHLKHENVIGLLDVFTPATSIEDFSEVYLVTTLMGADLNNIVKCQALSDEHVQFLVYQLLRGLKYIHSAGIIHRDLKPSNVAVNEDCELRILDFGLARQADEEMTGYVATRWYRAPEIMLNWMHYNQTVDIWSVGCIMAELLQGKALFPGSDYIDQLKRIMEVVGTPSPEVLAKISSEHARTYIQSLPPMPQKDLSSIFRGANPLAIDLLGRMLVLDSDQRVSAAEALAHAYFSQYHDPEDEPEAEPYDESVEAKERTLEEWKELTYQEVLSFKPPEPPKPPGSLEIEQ
PRK2, sequence (Q16513 whole entry): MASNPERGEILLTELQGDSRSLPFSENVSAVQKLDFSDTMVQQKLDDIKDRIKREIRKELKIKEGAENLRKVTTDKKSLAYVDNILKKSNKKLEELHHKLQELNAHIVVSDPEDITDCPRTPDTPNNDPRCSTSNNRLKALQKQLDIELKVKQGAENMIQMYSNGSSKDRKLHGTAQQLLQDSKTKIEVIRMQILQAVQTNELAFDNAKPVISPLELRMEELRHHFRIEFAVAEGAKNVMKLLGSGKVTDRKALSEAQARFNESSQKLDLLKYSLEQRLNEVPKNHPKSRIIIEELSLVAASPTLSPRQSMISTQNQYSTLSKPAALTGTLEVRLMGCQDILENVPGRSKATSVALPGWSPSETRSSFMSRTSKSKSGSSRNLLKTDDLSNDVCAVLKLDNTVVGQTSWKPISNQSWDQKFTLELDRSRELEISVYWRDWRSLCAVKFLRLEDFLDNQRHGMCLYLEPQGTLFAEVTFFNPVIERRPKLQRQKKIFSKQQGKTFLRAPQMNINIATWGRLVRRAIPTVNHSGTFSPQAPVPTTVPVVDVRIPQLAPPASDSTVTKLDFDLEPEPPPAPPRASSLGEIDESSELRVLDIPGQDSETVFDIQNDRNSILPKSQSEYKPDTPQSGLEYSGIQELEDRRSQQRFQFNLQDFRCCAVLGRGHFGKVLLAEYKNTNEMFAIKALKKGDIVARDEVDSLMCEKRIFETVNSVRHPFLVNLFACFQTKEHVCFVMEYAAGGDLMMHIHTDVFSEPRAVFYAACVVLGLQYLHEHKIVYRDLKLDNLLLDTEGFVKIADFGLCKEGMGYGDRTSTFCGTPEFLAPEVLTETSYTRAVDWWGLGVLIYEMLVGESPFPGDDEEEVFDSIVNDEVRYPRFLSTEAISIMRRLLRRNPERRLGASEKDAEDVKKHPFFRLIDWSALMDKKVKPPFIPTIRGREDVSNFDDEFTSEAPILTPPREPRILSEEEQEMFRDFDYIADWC
Description for cAPK Cα: To determine the inhibition constant (Ki), 3-fold serial dilutions of a given inhibitor are performed analogously as for titration experiments. Before the measurement of fluorescence anisotropies the plate is rotated (400 rpm) for 10 minutes at 30° C.

As to `N=C(N)NCCC[C@@H](NC(=O)[C@@H](CCCNC(=N)N)NC(=O)[C@@H](CCCNC(=N)N)NC(=O)[C@@H](CCCNC(=N)N)NC(=O)[C@@H](CCCNC(=N)N)NC(=O)[C@@H](CCCNC(=N)N)NC(=O)CCCCCNCCNS(=O)(=O)c1cccc2cnccc12)C(N)=O` [Compound 26, H9-Hex(D-Arg)6-NH2], the remaining activity at 1 µM with MST2 (inhibitor 1 μM, ATP 20 μM) is 24%; with MNK1 (inhibitor 1 μM, ATP 50 μM), 68%; with SRPK1 (inhibitor 1 μM, ATP 50 μM), 99%; with MNK2 (inhibitor 1 μM, ATP 50 μM), 31%; with MAPK2/ERK2 it was 95%; with SAPK2a/p38 it was 76%. The remaining activity at 1 µM was found to be 99% with SAPK3/p38g; 80% with SAPK2b/p38β2; 93% with SAPK4/p38d; 75% with JNK/SAPK1c; 73% with CDK2/cyclin A.

At cAPK Cα, `N=C(N)NCCC[C@@H](NC(=O)[C@@H](CCCNC(=N)N)NC(=O)[C@@H](CCCNC(=N)N)NC(=O)[C@@H](CCCNC(=N)N)NC(=O)[C@@H](CCCNC(=N)N)NC(=O)[C@@H](CCCNC(=N)N)NC(=O)CCCCCNC(=O)[C@H]1O[C@@H](n2cnc3c(N)ncnc32)[C@H](O)[C@@H]1O)C(N)=O` [Compound 5, AdcAhx(D-Arg)6-NH2] returned an inhibition constant (Ki) of 1.1 nM. Besides, the remaining activity at 1 µM was 77% in the data set with MST2; 102% in the data set with MNK1; 100% with SRPK1; 99% with MNK2; at most 3% with PKBb; at most 3% with PRK2. In addition, the remaining activity at 1 µM turned out to be 100% with MAPK2/ERK2; 79% with SAPK2a/p38; 111% in the data set with SAPK3/p38g; 85% in the data set with SAPK2b/p38β2; 107% with SAPK4/p38d; 70% with JNK/SAPK1c. Also, the remaining activity at 1 µM with CDK2/cyclin A was determined as 88%. In the data set with PKBΔph, the residual activity is given as at most 3%.
